Measurements: patent US20260167699A1 (Chugai, published 2026)
Numbering of substitutions follows the chain as printed. Blank lines part the entries; values can stand above or below the binder they belong to.

Assays:
Experiment in all cases: SPR; He Ab vs HeCon Ab (GpH7-A5/GpH7-B3/GpL16-k0)=100;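 also: surface plasmon resonance at 25 °C with the test antibody captured on a sensor chip via antigenic peptide, protein L or protein A/G and FcγR flowed over as analyte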
[1] = target: T1, FcγRIa extracellular domain, C-terminal His tag (human, UniProt P12314 16-292)
T1 construct: extracellular domain; also called 1a

[2] = target: T2, FcγRIIIa extracellular domain, C-terminal His tag (human, UniProt P08637 17-208)
T2 construct: extracellular domain; also called 3a

[3] = target: T3, FcγRIIa(H) extracellular domain, C-terminal His tag (human, UniProt P12318 34-217)
T3 construct: extracellular domain; also called 2aH
T3 sequence: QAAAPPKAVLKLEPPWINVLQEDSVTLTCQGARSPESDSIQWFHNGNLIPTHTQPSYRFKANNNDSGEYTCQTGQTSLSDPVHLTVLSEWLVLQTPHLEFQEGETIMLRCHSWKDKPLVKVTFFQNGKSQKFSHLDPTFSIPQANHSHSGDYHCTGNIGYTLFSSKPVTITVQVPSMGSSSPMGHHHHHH

[4] = target: T4, FcγRIIa(R) extracellular domain, C-terminal His tag (human, UniProt P12318 34-217)
T4 construct: extracellular domain; also called 2aR
T4 sequence: T3 sequence with H134R

[5] = target: T5, FcγRIIb extracellular domain, C-terminal His tag (human, UniProt P31994 43-217)
T5 construct: extracellular domain; also called 2b
T5 sequence: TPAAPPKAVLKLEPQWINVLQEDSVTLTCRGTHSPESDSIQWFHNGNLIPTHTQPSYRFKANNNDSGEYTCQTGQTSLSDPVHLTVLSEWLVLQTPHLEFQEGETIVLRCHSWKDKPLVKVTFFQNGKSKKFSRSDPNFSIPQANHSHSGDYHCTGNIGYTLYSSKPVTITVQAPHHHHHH

T2 sequence (P08637 other isoform, or with tags, fused parts or gaps): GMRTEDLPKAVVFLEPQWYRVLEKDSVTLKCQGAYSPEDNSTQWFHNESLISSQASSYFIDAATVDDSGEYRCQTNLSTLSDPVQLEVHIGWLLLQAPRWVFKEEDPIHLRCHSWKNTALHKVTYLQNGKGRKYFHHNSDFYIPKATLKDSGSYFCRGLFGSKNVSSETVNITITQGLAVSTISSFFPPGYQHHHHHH
T1 sequence (P12314 other isoform, or with tags, fused parts or gaps): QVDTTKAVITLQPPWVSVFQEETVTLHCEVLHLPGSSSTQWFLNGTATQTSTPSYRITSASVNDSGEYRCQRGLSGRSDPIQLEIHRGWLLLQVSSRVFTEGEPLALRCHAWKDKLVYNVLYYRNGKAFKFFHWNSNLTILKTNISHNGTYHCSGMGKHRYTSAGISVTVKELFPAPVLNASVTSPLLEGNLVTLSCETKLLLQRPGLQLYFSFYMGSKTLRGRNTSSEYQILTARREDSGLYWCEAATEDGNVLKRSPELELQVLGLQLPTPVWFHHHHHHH

- He/Con 1a [1]: 104%
- He/Con 3a [2]: 106%
- He/Con 2aH [3]: 96.2%
- He/Con 2aR [4]: 94.2%
- He/Con 2b [5]: 79%
B2: GpH7-A5/GpH7-B3 variant S298_14T/GpL16-k0 (antibody, human IgG1, kappa)
heavy 1: not shown
heavy 2: not shown
light: DIVMTQSPLSLPVTPGEPASISCQASESLVHSNRNTYLHWYLQKPGQSPQLLIYKVSNRFSGVPDRFSGSGSGTDFTLKISRVEAEDVGVYYCSQNTHVPPTFGQGTKVEIERTVAAPSVFIFPPSDEQLKSGTASVVCLLNNFYPREAKVQWKVDNALQSGNSQESVTEQDSKDSTYSLSSTLTLSKADYEKHKVYACEVTHQGLSSPVTKSFNRGEC
notes: heterodimerized IgG1, one H chain mutated; also called He Ab; copies: 1 + 1 + 2

- He/Con 1a [1]: 106%
- He/Con 3a [2]: 50%
- He/Con 2aH [3]: 63.9%
- He/Con 2aR [4]: 91%
- He/Con 2b [5]: 62.2%
B4: GpH7-A5/GpH7-B3 variant S298_11K/GpL16-k0 (antibody, human IgG1, kappa)
heavy 1: not shown
heavy 2: not shown
light: B2 light
notes: as for B2

- He/Con 1a [1]: 103%
- He/Con 3a [2]: 99.3%
- He/Con 2aH [3]: 106%
- He/Con 2aR [4]: 99.6%
- He/Con 2b [5]: 99.9%
B7: GpH7-A5/GpH7-B3 variant S324_04F/GpL16-k0 (antibody, human IgG1, kappa)
heavy 1: not shown
heavy 2: not shown
light: B2 light
notes: as for B2

- He/Con 1a [1]: 96.2%
- He/Con 3a [2]: 101%
- He/Con 2aH [3]: 107%
- He/Con 2aR [4]: 109%
- He/Con 2b [5]: 125%
B11: GpH7-A5/GpH7-B3 variant S324_07I/GpL16-k0 (antibody, human IgG1, kappa)
heavy 1: not shown
heavy 2: not shown
light: B2 light
notes: as for B2

- He/Con 1a [1]: 97.3%
- He/Con 3a [2]: 95.5%
- He/Con 2aH [3]: 106%
- He/Con 2aR [4]: 110%
- He/Con 2b [5]: 117%
B12: GpH7-A5/GpH7-B3 variant S324_08L/GpL16-k0 (antibody, human IgG1, kappa)
heavy 1: not shown
heavy 2: not shown
light: B2 light
notes: as for B2

- He/Con 1a [1]: 106%
- He/Con 3a [2]: 52.1%
- He/Con 2aH [3]: 67.4%
- He/Con 2aR [4]: 81.6%
- He/Con 2b [5]: 58.6%
B13: GpH7-A5/GpH7-B3 variant S298_12R/GpL16-k0 (antibody, human IgG1, kappa)
heavy 1: not shown
heavy 2: not shown
light: B2 light
notes: as for B2

Continued, binder first:

B1: GpH7-A5/GpH7-B3 variant S298_04F/GpL16-k0 (antibody, human IgG1, kappa)
heavy 1: not shown
heavy 2: not shown
light: B2 light
notes: as for B2
- He/Con 1a [1]: 106%
- He/Con 3a [2]: 77.6%
- He/Con 2aH [3]: 75.5%
- He/Con 2aR [4]: 80.4%
- He/Con 2b [5]: 66.3%

B3: GpH7-A5/GpH7-B3 variant S298_15Y/GpL16-k0 (antibody, human IgG1, kappa)
heavy 1: not shown
heavy 2: not shown
light: B2 light
notes: as for B2
- He/Con 1a [1]: 104%
- He/Con 3a [2]: 80.6%
- He/Con 2aH [3]: 71.2%
- He/Con 2aR [4]: 75.7%
- He/Con 2b [5]: 62.2%

B5: GpH7-A5/GpH7-B3 variant S298_06M/GpL16-k0 (antibody, human IgG1, kappa)
heavy 1: not shown
heavy 2: not shown
light: B2 light
notes: as for B2
- He/Con 1a [1]: 111%
- He/Con 3a [2]: 87.2%
- He/Con 2aH [3]: 95.8%
- He/Con 2aR [4]: 104%
- He/Con 2b [5]: 103%

B6: GpH7-A5/GpH7-B3 variant S298_07I/GpL16-k0 (antibody, human IgG1, kappa)
heavy 1: not shown
heavy 2: not shown
light: B2 light
notes: as for B2
- He/Con 1a [1]: 104%
- He/Con 3a [2]: 90.7%
- He/Con 2aH [3]: 84.9%
- He/Con 2aR [4]: 86.2%
- He/Con 2b [5]: 71.5%

B8: GpH7-A5/GpH7-B3 variant S298_19Q/GpL16-k0 (antibody, human IgG1, kappa)
heavy 1: not shown
heavy 2: not shown
light: B2 light
notes: as for B2
- He/Con 1a [1]: 106%
- He/Con 3a [2]: 70.6%
- He/Con 2aH [3]: 88.9%
- He/Con 2aR [4]: 90.9%
- He/Con 2b [5]: 74.3%

B9: GpH7-A5/GpH7-B3 variant S324_03V/GpL16-k0 (antibody, human IgG1, kappa)
heavy 1: not shown
heavy 2: not shown
light: B2 light
notes: as for B2
- He/Con 1a [1]: 97.7%
- He/Con 3a [2]: 101%
- He/Con 2aH [3]: 108%
- He/Con 2aR [4]: 113%
- He/Con 2b [5]: 128%

B10: GpH7-A5/GpH7-B3 variant S298_08L/GpL16-k0 (antibody, human IgG1, kappa)
heavy 1: not shown
heavy 2: not shown
light: B2 light
notes: as for B2
- He/Con 1a [1]: 104%
- He/Con 3a [2]: 69.2%
- He/Con 2aH [3]: 83%
- He/Con 2aR [4]: 100%
- He/Con 2b [5]: 110%

B14: GpH7-A5/GpH7-B3 variant S298_16H/GpL16-k0 (antibody, human IgG1, kappa)
heavy 1: not shown
heavy 2: not shown
light: B2 light
notes: as for B2
- He/Con 1a [1]: 105%
- He/Con 3a [2]: 71.9%
- He/Con 2aH [3]: 80.2%
- He/Con 2aR [4]: 84.7%
- He/Con 2b [5]: 64.4%
